# Test results from patent US20020081601A1, “Methods and compositions for diagnosis and treatment of cancer based on the transcription factor ets2” (MUSC Foundation For Research Development., priority 1998, published 2002).
# System: DU145
# Experiment: Soft agar growth assay (anchorage independent growth)
# Format: cell-based, human
# Conditions: DN-ETS2 transfectants vs DU145 parental; after three weeks
# Experimental: Soft agar growth assays were performed in six-well plates (35-mm wells). Cells (20,000) were plated in 0.4% agar (Sigma) in RPMI 1640 supplemented with 10% FBS. An underlayer of 0.8% agar was used to prevent attachment of cells. Triplicate assays initiated with 20,000 cells were fed weekly by agar overlay and scored after 3 weeks. The soft agar assays were performed twice, independently.
molecule,measurement,value
"DN-ETS2: dominant negative ETS2 mutant: DNA binding domain (C-terminal amino acids 334-469) of human ETS2, expressed from pDN-ETS2 (protein, UniProt P15036 334-469, looked up, fragment) YIQERSDPVEQGKPVIPAAVLAGFTGSGPIQLWQFLLELLSDKSCQSFISWTGDGWEFKLADPDEVARRWGKRKNKPKMNYEKLSRGLRYYYDKNIIHKTSGKRYVYRFVCDLQNLLGFTPEELHAILGVQPDTED",anchorage-independent growth in soft agar,do not grow well in soft agar
